Data published in US20230250154A1 (CYTONICS, published 2023).

Assays:
Experiment in all cases: cell-based or functional assay
MMP13 = MMP13 (human, UniProt P45452 104-471, limits assumed)
ADAMTS5 = target: T1, ADAMTS5 (human, UniProt Q9UNA0 262-622, limits assumed)
T1 sequence (looked up): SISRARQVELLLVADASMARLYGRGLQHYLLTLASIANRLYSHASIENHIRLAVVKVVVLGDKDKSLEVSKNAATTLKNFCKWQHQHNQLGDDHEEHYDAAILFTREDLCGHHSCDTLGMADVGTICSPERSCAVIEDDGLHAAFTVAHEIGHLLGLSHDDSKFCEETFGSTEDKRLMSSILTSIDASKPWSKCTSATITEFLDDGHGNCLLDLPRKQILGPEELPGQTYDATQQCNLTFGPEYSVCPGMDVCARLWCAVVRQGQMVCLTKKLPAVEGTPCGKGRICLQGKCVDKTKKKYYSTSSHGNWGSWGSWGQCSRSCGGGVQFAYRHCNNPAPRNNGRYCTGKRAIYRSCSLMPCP

ADAMTS4 = target: T2, ADAMTS4 (human, UniProt O75173 213-685, limits assumed)
T2 sequence (looked up): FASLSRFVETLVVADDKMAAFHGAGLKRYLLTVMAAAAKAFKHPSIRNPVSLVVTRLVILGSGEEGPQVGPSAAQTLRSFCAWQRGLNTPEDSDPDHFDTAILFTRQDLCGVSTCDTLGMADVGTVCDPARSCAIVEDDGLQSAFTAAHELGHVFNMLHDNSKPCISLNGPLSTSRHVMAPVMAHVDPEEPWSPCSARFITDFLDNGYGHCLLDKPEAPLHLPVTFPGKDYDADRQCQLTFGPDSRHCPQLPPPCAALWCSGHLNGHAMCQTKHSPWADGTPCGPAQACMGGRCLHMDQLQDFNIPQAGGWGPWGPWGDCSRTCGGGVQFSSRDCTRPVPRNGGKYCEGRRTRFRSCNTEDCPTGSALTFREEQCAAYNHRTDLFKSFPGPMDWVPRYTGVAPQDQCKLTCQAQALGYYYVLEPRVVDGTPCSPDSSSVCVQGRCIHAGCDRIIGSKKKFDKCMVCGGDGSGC

B1: Variant A2M, bait region SEQ ID NO 113 (other)
chain: SVSGKPQYMVLVPSLLHTETTEKGCVLLSYLNETVTVSASLESVRGNRSLFTDLEAENDVLHCVAFAVPKSSSNEEVMFLTVQVKGPTQEFKKRTTVMVKNEDSLVFVQTDKSIYKPGQTVKFRVVSMDENFHPLNELIPLVYIQDPKGNRIAQWQSFQLEGGLKQFSFPLSSEPFQGSYKVVVQKKSGGRTEHPFTVEEFVLPKFEVQVTVPKIITILEEEMNVSVCGLYTYGKPVPGHVTVSICRKYSDASDCHGEDSQAFCEKFSGQLNSHGCFYQQVKTKVFQLKRKEYEMKLHTEAQIQEEGTVVELTGRQSSEITRTITKLSFVKVDSHFRQGIPFFGQVRLVDGKGVPIPNKVIFIRGNEANYYSNATTDEHGLVQFSINTTNVMGTSLTVRVNYKDRSPCYGYQWVSEEHEEAHHTAYLVFSPSKSFVHLEPMSHELPCGHTQTVQAHYILNGGTLLGLKKLSFYYLIMAKGGIVRTGTHGLLVKQEDMKGHFSISIPVKSDIAPVARLLIYAVLPTGDVIGDSAKYDVENCLANKVDLSFSPSQSLPASHAHLRVTAAPQSVCALRAVDQSVLLMKPDAELSASSVYNLLPEKDLTGFPGPLNDQDDEDCINRHNVYINGITYTPVSSTNEKDMYSFLEDMGLKAFTNSKIRKPKMCPQLEEGEARGSTAQEAGEGPKEEEGLGSSELEGRGSPVSQELGQRKLRKYFPETWIWDLVVVNSAGVAEVGVTVPDTITEWKAGAFCLSEDAGLGISSTASLRAFQPFFVELTMPYSVIRGEAFTLKATVLNYLPKCIRVSVQLEASPAFLAVPVEKEQAPHCICANGRQTVSWAVTPKSLGNVNFTVSAEALESQELCGTEVPSVPEHGRKDTVIKPLLVEPEGLEKETTFNSLLCPSGGEVSEELSLKLPPNVVEESARASVSVLGDILGSAMQNTQNLLQMPYGCGEQNMVLFAPNIYVLDYLNETQQLTPEIKSKAIGYLNTGYQRQLNYKHYDGSYSTFGERYGRNQGNTWLTAFVLKTFAQARAYIFIDEAHITQALIWLSQRQKDNGCFRSSGSLLNNAIKGGVEDEVTLSAYITIALLEIPLTVTHPVVRNALFCLESAWKTAQEGDHGSHVYTKALLAYAFALAGNQDKRKEVLKSLNEEAVKKDNSVHWERPQKPKAPVGHFYEPQAPSAEVEMTSYVLLAYLTAQPAPTSEDLTSATNIVKWITKQQNAQGGFSSTQDTVVALHALSKYGAATFTRTGKAAQVTIQSSGTFSSKFQVDNNNRLLLQQVSLPELPGEYSMKVTGEGCVYLQTSLKYNILPEKEEFPFALGVQTLPQTCDEPKAHTSFQISLSVSYTGSRSASNMAIVDVKMVSGFIPLKPTVKMLERSNHVSRTEVSSNHVLIYLDKVSNQTLSLFFTVLQDVPVRDLKPAIVKVYDYYETDEFAIAEYNAPCSKDLGNADYKDDDDKGASHHHHHH
With B1 the “Protease Inhibition (% of WT)” value (MMP13) was 27 % of WT, the “Protease Inhibition (% of WT)” value (ADAMTS5) was 92 % of WT and the “Protease Inhibition (% of WT)” value (ADAMTS4) was 115 % of WT.
